According to US20180112193A1, “CSF1 THERAPEUTICS” (University Court Of The University Of Edinburgh, priority 2013, published 2018):

Legend:
neonatal pigs = assay: Fc-CSF-1 efficacy/safety treatment trial in neonatal pigs; assay type: in vivo, pig
Description: Further tests were conducted to assess Fc-CSF-1 efficacy/safety treatment trial in neonatal pigs. At the two doses tested (0.12 mg/Kg×3 and 0.5 mg/Kg×6) the Fc-CSF-1 treatment had little effect on body weight gain at any time point. […] It was noted that in the control animals, that the total blood cell count, monocyte count and granulocyte count declines in the first two weeks of life in the pig.

male C57BI6 mice [1] = assay: Chronic liver injury (carbon tetrachloride) plus 2/3 partial hepatectomy in mice; assay type: in vivo, mouse; details: for mouse body weight: p<0.001 at day 4
Description: (§1) Forty-eight male C57BI6 mice aged 10-12 weeks underwent either 2/3 partial hepatectomy, paracetamol intoxication or chronic liver injury plus 2/3 partial hepatectomy. 2/3 partial hepatectomy was performed by ligating the left lobe and left and right median lobes. Paracetamol intoxication was performed by intraperitoneal administration of 350 mg/kg paracetamol dissolved in phosphate buffered saline (PBS). Chronic liver injury plus 2/3 partial hepatectomy was performed by eight weeks intraperitoneal carbon tetrachloride administration 1 mcl/g twice weekly dissolved in olive oil followed by ⅔ partial hepatectomy as described above. […] Control mice (n=8 per injury model) received subcutaneous PBS of appropriate volume. All mice were culled on day 4 following injury (partial hepatectomy or paracetamol intoxication).
(§2) Following a midline laparotomy the liver was excised and weighed. Liver weight to body weight ratio was calculated and expressed as a percentage. Livers were fixed in 4% formalin overnight then transferred to 70% ethanol. Livers were then embedded in paraffin blocks and 4 μm sections cut. Immunohistochemistry for Ki67 (a marker of cellular proliferation expressed throughout the cell cycle) was performed following heat mediated antigen retrieval in Tris/EDTA solution at pH9. Hepatocyte proliferation was quantified by counting ki67 positive hepatocytes in 20 high powered fields (400×) per animal and the mean calculated.
The effects of Fc-CSF1 on liver regeneration in murine models of acute liver injury (partial hepatectomy; paracetamol intoxication) and acute-on-chronic liver injury (chronic liver injury plus partial hepatectomy) were studieD. […] Control mice (n=8 per injury model) received subcutaneous PBS of appropriate volume.
CSF1-Fc or control was administered to mice immediately following 2/3 partial hepatectomy on a background of 8 weeks carbon tetrachloride induced chronic liver injury (1 mcl/g carbon tetrachloride/mouse 2×/week).

male C57BI6 mice [2] = assay: Murine models of acute and acute-on-chronic liver injury (all three injury models); assay type: in vivo
Description: as §1, §2
The effects of Fc-CSF1 on liver regeneration in murine models of acute liver injury (partial hepatectomy; paracetamol intoxication) and acute-on-chronic liver injury (chronic liver injury plus partial hepatectomy) were studieD. The treatment group (n=8 per injury model) received 0.5 mcg/g Fc-CSF1 administered subcutaneously immediately following either partial hepatectomy or paracetamol intoxication and subsequently every 24 hours for three further doses. Control mice (n=8 per injury model) received subcutaneous PBS of appropriate volume. […]

C57BI6 male mice [3] = assay: Hepatic phagocytic ability after paracetamol intoxication (gene analysis, bead clearance assay, ex vivo imaging); assay type: in vivo, mouse
Description: (§3) C57BI6 male mice (8-10 weeks) underwent either partial hepatectomy (⅔ resection) or paracetamol intoxication (350 mg/kg intraperitoneal following overnight fast). CSF1-Fc was administered as previous (0.75 mg/kg). Gene analysis was performed using Qiagen Quantitect Primers (MSR1 and MARCO) and related to GAPDH level for each sample. […] 0.1 mls of 5000 IU/ml heparin solution was infused to prevent blockage of the catheter. 100 μl of red fluorescent bead solution (1:5 Latex beads 1.0 μm, fluorescent red, SIGMA-ALDRICH®) was infused through the cannula (1:2 solution for assay following paracetamol injury). 20 mcl of blood was removed from the cannula every two minutes starting from 1 minute post injection for 15 minutes. Blood was immediately fixed with 300 μl FACS-Lysing solution (BD Biosceinces). After 15 minutes mice were perfused with 15 mls 0.9% saline through the IVC cannula after dividing the portal vein for outflow. Organs were then removed (Liver, spleen, lungs, kidney, brain) and imaged with a Kodak In-Vivo Multispectral FX image station (Excitation: 550 nm; Emission: 600 nm; Exposure 1 sec; f-stop 2.8). Subsequently blood samples were analysed using a LSR-Fortessa™ flow cytometer (BD Biosciences) with fluorescent beads detected on the blue channel (B695/40) by a 1 minute sample collection on low flow rate setting.

weaner pigs = assay: Preliminary experiment on weaners, circulating monocytes; assay type: in vivo, pig; details: three treatments with 0.4 mg/kg every alternative day
Description: Note that the peak plasma level obtained is only around 100 ng/ml, and it is completely cleared by 20 hours. By contrast, Fc-CSF-1 (FIGS. 9B and C) attains 100-fold higher plasma concentrations and remains elevated for up to 72 hours. A preliminary experiment on weaners determined that three treatments with 0.4 mg/kg with Fc-CSF-1 every alternative day produced a 2-3 fold increase in circulating monocyte numbers.

C57BI6 male mice [4] = assay: Hepatic phagocytic ability after partial hepatectomy (gene analysis, bead clearance assay, ex vivo imaging); assay type: in vivo, mouse
Description: as §3

[5] = 0.12 mg/Kg×3, end of the experiment
[6] = chronic liver injury with 2/3 partial hepatectomy, vs control
[7] = all injury models, vs PBS control
[8] = day 2 following paracetamol intoxication
[9] = day 2 following partial hepatectomy

B1: Fc-CSF-1: active fragment of porcine CSF-1 (SEQ ID NO:1) linked to the hinge-CH3 region of porcine IgG1a (SEQ ID NO:2) (protein, listed as Sus scrofa)
chain: SENCSHMIGDGHLKVLQQLIDSQMETSCQIAFEFVDQEQLTDPVCYLKKAFLQVQDILDETMRFRDNTPNANVIVQLQELSLRLNSCFTKDYEEQDKACVRTFYETPLQLLEKIKNVFNETKNLLKKDWNIFSKNCNNSFAKCSSQHERQPEGRGTKTKPPCPICPGCEVAGPSVFIFPPKPKDTLMISQTPEVTCVVVDVSKEHAEVQFSWYVDGVEVHTAETRPKEEQFNSTYRVVSVLPIQHQDWLKGKEFKCKVNNVDLPAPITRTISKAIGQSREPQVYTLPPPAEELSRSKVTVTCLVIGFYPPDIHVEWKSNGQPEPEGNYRTTPPQQDVDGTFFLYSKLAVDKARWDHGETFECAVMHEALHNHYTQKSISKTQGK
kidney weight (neonatal pigs; [5]): did not alter
liver weight (neonatal pigs; [5]): did not alter
lung weight (neonatal pigs; [5]): did not alter
spleen weight (neonatal pigs; [5]): did not alter
body weight gain (neonatal pigs; 0.12 mg/Kg×3 and 0.5 mg/Kg×6, any time point): little effect
granulocyte count (neonatal pigs; blood, vs control animals): increased
lymphocyte count (neonatal pigs; blood, vs control animals): increased
monocyte count (neonatal pigs; blood, vs control animals): increased
weight gain (neonatal pigs; higher dose (0.5 mg/Kg×6), data not shown): marginal decrease
histiocytes in the liver (pathology report) (neonatal pigs; liver): increased numbers
fibrosis assessed by Sirius red quantification (male C57BI6 mice [1]; [6]): trend to reduction
liver weight to body weight ratio (male C57BI6 mice [1]; [6]): increased significantly
number of proliferating hepatocytes (male C57BI6 mice [1]; [6]): increased significantly
mouse body weight (male C57BI6 mice [1]; [6]): significant increase in mouse weight
mouse body weight (male C57BI6 mice [1]; chronic liver injury with 2/3 partial hepatectomy, vs control, listed as CSF1-Fc): significant increase in body weight
survival (male C57BI6 mice [1]; chronic liver injury with 2/3 partial hepatectomy, vs control, p=0.08): trend to improved survival
serum ALT (male C57BI6 mice [1]; day 4 post hepatectomy): significant reduction
serum bilirubin (male C57BI6 mice [1]; day 4 post hepatectomy): significant reduction
hepatic weights (male C57BI6 mice [2]; [7]): growth promoting effect
hepatocyte proliferation (male C57BI6 mice [2]; [7]): growth promoting effect
tolerability of interventions and treatments (male C57BI6 mice [2]; subcutaneously immediately after injury, then every 24 hours for three further doses): well tolerated
MARCO gene expression, whole liver (C57BI6 male mice [3]; [8]): upregulation
MSR1 (macrophage scavenger receptor 1) gene expression, whole liver (C57BI6 male mice [3]; [8]): upregulation
clearance of latex microbeads from the circulation (C57BI6 male mice [3]; paracetamol model): did not notice enhanced clearance
hepatic fluorescence, ex vivo imaging (C57BI6 male mice [3]; paracetamol model): significant increase
increase in circulating monocyte numbers (weaner pigs): 2-3 fold
phagocytic ability of the liver, clearance of fluorescent latex microbeads from the circulation (C57BI6 male mice [4]; 0.75 mg/kg, following partial hepatectomy): dramatically enhanced
fluorescent intensity of whole liver, ex vivo imaging (C57BI6 male mice [4]; 15 minutes after bead injection, following partial hepatectomy): increased fluorescent intensity
MARCO gene expression, whole liver (C57BI6 male mice [4]; [9]): upregulation
MSR1 (macrophage scavenger receptor 1) gene expression, whole liver (C57BI6 male mice [4]; [9]): upregulation
